From patent publication US20060104978A1, “Methods and compositions for PDGF-C activation and inhibition” (LUDWIG INSTITUTE FOR CANCER RESEARCH, priority 2003, published 2006)

B1: activated PDGF-CC: activated PDGF-CC protein, growth factor without CUB domains (protein)
chain: GRKSRVVDLNLLTEEVRLYSCTPRNFSVSIREELKRTDTIFWPGCLLVKRCGGNCACCLHNCNECQCVPSKVTKKYHEVLQLRPKTGVRGLHKSLTDVALEHHEECDCVCRGSTGG
B2: CUB domain: free CUB domain of PDGF-C; recombinant His6-tagged (residues 23-163) or c-myc-tagged (residues 1 to 165) (protein)
chain: ESNLSSKFQFSSNKEQNGVQDPQHERIITVSTNGSIHSPRFPHTYPRNTVLVWRLVAVEENVWIQLTFDERFGLEDPEDDICKYDFVEVEEPSDGTILGRWCGSGTVPGKQISKGNQIRIRFVSDEYFPSEPGFCIHYNIVHHHHHH

Legend:
[1] = test system: tPA-deficient fibroblasts; assay: WST-1 growth assay of primary fibroblasts in serum-free medium; type: cell-based, mouse; details: 50 ng/ml added to serum-free culture medium, 24 hours
Method: It was observed that primary fibroblasts derived from tPA-deficient mice grew more slowly in culture than fibroblasts derived from wild-type animals, raising the possibility that activation of latent PDGF-CC by tPA generated autocrine and paracrine growth stimulatory loops for primary fibroblasts in culture. To analyze this effect, isolated wild-type and tPA-deficient fibroblasts were serum-starved overnight, and the growth of the cells during the next 24 hours was monitored using an enzyme-based viability assay (see Example 8, Materials and Methods).
(§1) To monitor cell growth, both the cell proliferation reagent WST-1 (Roche) and BrdU (Sigma) were used. A total of 0.4×10^4 (WST-1) or 1×10^4 (BrdU) wild-type and tPA-deficient fibroblasts were seeded in triplicate-hexaplicate, and after attachment they were serum-starved overnight. Serum-starved cells were counted (WST-1 seeding control) and alternatively incubated for 24 hours in serum-free medium supplemented with 1 mg/ml BSA, and 50 μM BrdU in the BrdU experiment, in the absence or presence of 50 ng/ml activated PDGF-CC or tPA protein (#116, American Diagnostica Inc.). Upon counting, WST-1 reagent was added and measured according to the manufacturer's protocol using an ELISA reader. […] Quantification of the BrdU-positive cells was performed by counting all cells along the vertical and horizontal diameters of all wells.

[2] = test system: wild-type and tPA-deficient fibroblasts; assay: BrdU incorporation in primary fibroblasts; type: cell-based, mouse; details: 50 ng/ml, 24 hours BrdU labeling
Method: Cell nuclei were visualized with 4′,6-diamidine-2′-phenylindole dihydrochloride (DAPI), and BrdU-labeled cells were determined by immunofluorescence using antibodies to BrdU (FIG. 7B).
as §1, with “reader. In the BrdU experiment, the cells were fixed in 4% paraformaldehyde in PBS for 30 min at room temperature and the DNA was denatured in 2M HCl for 20 min at room temperature and then blocked in 0.5% BSA, 0.5% Tween, and 10% goat serum in PBS.” for “reader.”

PDGFR-α = target: T1, PDGFR-α (Mus musculus, UniProt P26618); assay: PDGFR-α tyrosine phosphorylation in primary fibroblasts; type: cell-based; details: 100 ng/ml activated PDGF-CC protein
T1 construct: endogenous in cells; host or cells: primary mouse kidney and lung fibroblasts
T1 sequence (P26618 25-1089): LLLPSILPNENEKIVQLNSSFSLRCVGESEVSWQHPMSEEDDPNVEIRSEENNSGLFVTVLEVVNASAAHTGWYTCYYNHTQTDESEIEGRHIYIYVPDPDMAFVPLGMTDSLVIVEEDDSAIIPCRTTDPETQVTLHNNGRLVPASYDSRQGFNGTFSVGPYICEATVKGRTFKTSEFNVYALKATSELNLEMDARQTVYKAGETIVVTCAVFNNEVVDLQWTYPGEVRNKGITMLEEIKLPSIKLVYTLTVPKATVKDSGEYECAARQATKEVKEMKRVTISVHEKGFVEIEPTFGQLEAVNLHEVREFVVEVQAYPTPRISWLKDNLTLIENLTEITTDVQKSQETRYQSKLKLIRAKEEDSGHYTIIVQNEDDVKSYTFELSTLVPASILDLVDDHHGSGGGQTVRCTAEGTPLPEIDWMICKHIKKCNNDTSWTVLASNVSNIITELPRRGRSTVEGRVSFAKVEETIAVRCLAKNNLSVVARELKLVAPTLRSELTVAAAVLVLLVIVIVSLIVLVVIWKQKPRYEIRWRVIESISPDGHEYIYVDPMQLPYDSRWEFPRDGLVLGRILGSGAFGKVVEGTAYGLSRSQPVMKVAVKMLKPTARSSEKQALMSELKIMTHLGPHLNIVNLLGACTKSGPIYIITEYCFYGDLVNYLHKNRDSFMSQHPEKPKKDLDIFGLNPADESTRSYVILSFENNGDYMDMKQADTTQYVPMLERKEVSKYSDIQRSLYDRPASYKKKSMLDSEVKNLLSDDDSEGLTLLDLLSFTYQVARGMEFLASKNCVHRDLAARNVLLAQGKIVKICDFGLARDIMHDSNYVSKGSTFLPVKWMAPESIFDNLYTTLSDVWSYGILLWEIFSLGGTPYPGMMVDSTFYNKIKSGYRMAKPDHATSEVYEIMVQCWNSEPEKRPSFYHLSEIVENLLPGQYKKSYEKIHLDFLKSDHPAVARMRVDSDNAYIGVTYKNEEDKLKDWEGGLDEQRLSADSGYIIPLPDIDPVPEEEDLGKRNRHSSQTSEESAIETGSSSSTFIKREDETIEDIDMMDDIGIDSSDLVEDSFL
Method: It is known that constitutive activation of PDGFRs by PDGFs leads to receptor desensitization (Heldin and Westermark, 1999), and therefore it was investigated whether the differences observed in growth between the wild-type and tPA-deficient fibroblasts upon PDGF-CC treatment were due to differential activation of PDGFR-α. Recombinant PDGF-CC protein was applied onto the primary fibroblasts and receptor activation was measured as induction of PDGFR-α tyrosine phosphorylation (FIG. 7D, upper panel).
To monitor growth factor-induced tyrosine phosphorylation of PDGFR-α, serum-starved PAE cells stably expressing human PDGFR-α were incubated for 120 min on ice with conditioned medium from COS-1 cells transfected with full-length PDGF-C in the absence or presence of tPA. Alternatively, primary wild-type and tPA-deficient fibroblasts were stimulated with 100 ng/ml activated PDGF-CC protein. The cells were lysed as described previously (Li et al, 2000) and PDGFR-α was immunoprecipitated using a specific antiserum (Eriksson et al, 1992). Precipitated proteins were separated by SDS-PAGE under reducing conditions. Tyrosinephosphorylated receptors were detected by immunoblotting using an antiphosphotyrosine antibody (PY99, Santa Cruz). The membranes were stripped and reprobed using a polyclonal antibody against the C-terminal of the PDGFRs (CED) to detect receptor expression levels.

[3] = cornea pocket model; cited from earlier work
tPA [4] = assay: Ni-NTA pull-down of purified tPA by His6-tagged recombinant proteins; type: binding, human; details: Ni-NTA beads coated with His6-tagged protein, 1 μg purified tPA, 2 hours room temperature, eluted with imidazole
Chain of tPA (P00750 36-562): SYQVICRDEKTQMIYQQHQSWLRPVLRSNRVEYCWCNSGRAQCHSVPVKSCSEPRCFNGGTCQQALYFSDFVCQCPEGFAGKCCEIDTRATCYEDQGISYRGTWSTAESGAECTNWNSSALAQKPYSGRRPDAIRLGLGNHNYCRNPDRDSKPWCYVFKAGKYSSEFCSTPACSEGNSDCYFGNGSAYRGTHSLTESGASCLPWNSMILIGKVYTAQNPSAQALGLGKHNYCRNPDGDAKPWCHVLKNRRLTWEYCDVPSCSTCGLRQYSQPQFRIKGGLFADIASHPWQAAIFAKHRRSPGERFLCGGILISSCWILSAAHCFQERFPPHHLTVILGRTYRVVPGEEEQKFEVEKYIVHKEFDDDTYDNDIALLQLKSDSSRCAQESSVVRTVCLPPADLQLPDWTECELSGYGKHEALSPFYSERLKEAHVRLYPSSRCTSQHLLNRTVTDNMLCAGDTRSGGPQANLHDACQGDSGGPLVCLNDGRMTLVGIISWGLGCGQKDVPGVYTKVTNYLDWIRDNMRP
Method: The possibility of a direct protein-protein interaction between tPA and latent PDGF-CC was explored by developing a pull-down assay. Ni-NTA beads were allowed to bind recombinant His6-tagged latent PDGF-CC or PDGF-DD, and purified tPA was added and incubated. Following extensive washings, bound proteins were subsequently eluted with an imidazole-containing buffer, and the eluates were analyzed by immunoblotting using specific antibodies.
To determine a direct protein-protein interaction between tPA and PDGF-CC, His6-tagged recombinant protein species were bound to Ni-NTA-agarose (Qiagen) and then incubated with 1 μg of purified tPA for 2 hours at room temperature. Uncoated and PDGF-DD coated Ni-NTA beads were used as controls. The beads were washed thoroughly, and His6-tagged proteins were specifically eluted with 400 mM imidazole. Eluted proteins were analyzed by SDS-PAGE under reducing conditions and immunoblotted with antibodies against human tPA (see above). The membranes were subsequently stripped and reprobed with specific antibodies.

tPA [5] = assay: Cotransfection assay in COS-1 cells: PDGF-CC forms and mutants coexpressed with tPA; type: cell-based, human; details: over-expression of free CUB domain (CUBc-myc) with full-length PDGF-C and tPA in COS-1 cells
From the text: The structural requirements for recognition of full-length PDGF-CC as a substrate for tPA were mapped by analysis of several mutated forms of PDGF-CC using the co-transfection assay. The mutants of PDGF-CC included a chimeric form of PDGF-C carrying the CUB domain from PDGF-D and the hinge region and growth factor domain of PDGF-C (mutant PDCUBPC), and several truncation mutants lacking the CUB domain and increasing parts of the hinge region (schematically illustratrated in FIG. 6A). All mutants were properly expressed in transfected COS-1 cells, formed disulfide-linked dimers (data not shown), and were efficiently secreted, except truncation mutant Δ190 that was expressed at a lower level in the conditioned medium (FIG. 6B).
A conserved site of four amino acids containing three basic amino-acid residues (amino-acid residues -R-K-S-R-) was previously identified as a potential site for proteolytic activation of latent PDGF-CC (Li et al, 2000). […]
To test the endogenous expression of PDGF-CC, subconfluent AG1523 cells and primary fibroblast cultures were cultured in serum-free DMEM overnight. […] In the case of the primary cultures, total protein concentration was measured and normalized (Bradford, 1976). […] PDGF-C and PDGF-D were detected by immunoblotting using affinity-purified polyclonal rabbit antibodies against PDGF-C (Li et al, 2000) and PDGF-D (Bergsten et al, 2001), respectively. […]

Row | Molecule | rescue of growth of tPA-deficient fibroblasts [1] | BrdU incorporation in tPA-deficient cells ([2]; serum-starved tPA-deficient fibroblasts) | BrdU incorporation in wild-type cells ([2]; serum-starved wild-type fibroblasts) | induction of PDGFR-α tyrosine phosphorylation, tPA-deficient versus wild-type fibroblasts (PDGFR-α) | neoangiogenesis [3] | binding of tPA in pull-down (tPA [4]) | competition for tPA-mediated processing of latent PDGF-CC (tPA [5])
1 | B1 | allowed the cells to grow similar to the wild-type fibroblasts | strongly stimulated BrdU incorporation in the tPA-deficient cells | had less effect on wild-type cells | more pronounced in the tPA-deficient cells as compared to wild type | strong inducer of neoangiogenesis | – | –
2 | B2 | – | – | – | – | – | both domains were able to interact with tPA | efficiently competed for the interaction and processing of latent PDGF-CC by tPA
